Data published in PMC5082758, “A Novel Pathway for Metabolism of the Cardiovascular Risk Factor Homoarginine by alanine:glyoxylate aminotransferase 2” (Scientific Reports, 2016).

What was measured:
purified protein [1] = substrate: C[C@H](N)C(=O)O; experiment: purified protein; details: amino donor, co-substrate 1 mM glyoxylate, PLP added (200 μM in methods, 100 μM in Figure 3 legend), potassium phosphate pH 8, 0.15 M NaCl, 25 °C
purified protein [2] = substrate: N=C(N)NCCCC[C@H](N)C(=O)O; experiment: purified protein; assay type: biochemical, Homo sapiens; details: amino donor, co-substrate 1 mM pyruvate, PLP added (200 μM in methods, 100 μM in Figure 3 legend), potassium phosphate pH 8, 0.15 M NaCl, 25 °C

B1: human alanine:glyoxylate aminotransferase 2 (AGXT2) (Homo sapiens) (protein)
chain: LHTKPRMPPCDFMPERYQSLGYNRVLEIHKEHLSPVVTAYFQKPLLLHQGHMEWLFDAEGSRYLDFFSGIVTVSVGHCHPKVNAVAQKQLGRLWHTSTVFFHPPMHEYAEKLAALLPEPLKVIFLVNSGSEANELAMLMARAHSNNIDIISFRGAYHGCSPYTLGLTNVGTYKMELPGGTGCQPTMCPDVFRGPWGGSHCRDSPVQTIRKCSCAPDCCQAKDQYIEQFKDTLSTSVAKSIAGFFAEPIQGVNGVVQYPKGFLKEAFELVRARGGVCIADEVQTGFGRLGSHFWGFQTHDVLPDIVTMAKGIGNGFPMAAVITTPEIAKSLAKCLQHFNTFGGNPMACAIGSAVLEVIKEENLQENSQEVGTYMLLKFAKLRDEFEIVGDVRGKGLMIGIEMVQDKISCRPLPREEVNQIHEDCKHMGLLVGRGSIFSQTFRIAPSMCITKPEVDFAVEVFRSALTQHMERRAK
notes: C-terminal FLAG fusion under CAG promoter; tag kept
In the case of B1, the Km (purified protein [1]) is reported as 25 ± 3 mM, the kcat (purified protein [1]) is reported as 0.142 ± 0.0083 s⁻¹ and the kcat/Km (purified protein [1]) is reported as 5.67 M⁻¹ s⁻¹. It also gave a Km (purified protein [2]) of 24 ± 3 mM, a kcat (purified protein [2]) of 0.0188 ± 0.00067 s⁻¹ and a kcat/Km (purified protein [2]) of 0.783 ± 0.1 M⁻¹ s⁻¹.
